Here are results for 116 sequences from the supplement of paper PMC10724198.

± gives the standard deviation of the averaged measurements.
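Note: PSI is a weighted mean of sequencing reads over stability bins, variants kept only with over 10 reads, mCherry proximal and sfGFP distal, peptide attached via GGGS linker.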

The test system of the series is Saccharomyces cerevisiae. As to the kind of experiment: protein stability index of tFT-peptide fusion (C-terminal peptide) (PSI (0-1 scale)); higher = more stable (slower turnover). Particulars: genetic background: wild type; temperature: 30 C.
Consider LHLDTMPQEKNN, for which the protein stability index stood at 0.668 ± 0.036. With LHPAPPAAPTRP the figure was 0.711 ± 0.016; with LHPRPPLFLHPL, 0.692 ± 0.015; with LHRFYVGQLVVN, 0.522 ± 0.0092. With LHSNFGSSVFSL the figure was 0.713 ± 0.012. Under LHSPWPFSAPGI stands 0.855 ± 0.2. Sequence LIGKNNTSIQLK came in with a protein stability index of 0.742 ± 0.16. Under LIIGYFSSRVCL stands 0.61 ± 0.074. Under LILRPLPPPLPP stands 0.5623 ± 0.0014. Under LIMLNNIENSSI stands 0.678 ± 0.01; under LIQHVTKLTPFF, 0.694 ± 0.012; under LIRFFSSSRPGS, 0.671 ± 0.15. LIRPSAPSHRSP registered a protein stability index of 0.798 ± 0.025. Under LISFSGFSPFLW stands 0.7678 ± 0.0027; under LISISNINEGVI, 0.688 ± 0.037; under LISPPAQLAFVP, 0.696 ± 0.016. Under LISRFFPSRSAP stands 0.854 ± 0.021; under LIVSTAGVTQFS, 0.66 ± 0.012; under LIWHTLSTVIPF, 0.657 ± 0.029. LKNKVDGKVSGK yielded a protein stability index of 0.6014 ± 0.0045. The sequence LKPGYQGQHKED returned a protein stability index of 0.7 ± 0.029. With LKPKLDFHIWDV the figure was 0.67 ± 0.1.

LKQKMKETGRRR came in with a protein stability index of 0.666 ± 0.058.

With LKRSDFSFLEKV, the protein stability index is 0.701 ± 0.075. Under LKSGAWFFRIGY stands 0.66 ± 0.018; under LKYETGTILRMT, 0.563 ± 0.013.

As to LLAFLPPPPCPP, the protein stability index worked out at 0.709 ± 0.036. LLATCGAIHTFC had a protein stability index of 0.637 ± 0.01. With LLCFGGRGPLAD the figure was 0.713 ± 0.028.

For the sequence LLCTSSGYWAWK, the protein stability index turned out to be 0.699 ± 0.0087. Sequence LLFFRSPFSLVS yielded a protein stability index of 0.6465 ± 0.0059. Under LLFLGSSLRDTF stands 0.759 ± 0.0098; under LLGGLHIPHPLR, 0.681 ± 0.052; under LLGSFSLSMSSL, 0.717 ± 0.021. With LLINTARWSEAG the figure was 0.662 ± 0.049; with LLLLDPPLPPPP, 0.684 ± 0.015; with LLLLRSPPPTPP, 0.6722 ± 0.0021. Regarding LLLLSTCSPLLL, the protein stability index worked out at 0.618 ± 0.021. LLLPPRPPPSVP came in with a protein stability index of 0.742 ± 0.15. With LLLQLSPLLTSL the figure was 0.646 ± 0.019; with LLLSSPPFPALL, 0.638 ± 0.0074; with LLPLPSPLPACP, 0.709 ± 0.02. As for LLPLTWTTVQGP, the protein stability index is 0.694 ± 0.027. With LLPPPPVPTPDR the figure was 0.659 ± 0.12; with LLPPRPSSSPPS, 0.704 ± 0.026; with LLPSLFLLPPSA, 0.743 ± 0.094. In turn, LLPSPRSSPPPS had a protein stability index of 0.675 ± 0.091. In the case of LLQRFTTVPTLL, the protein stability index turned out to be 0.616 ± 0.083. Under LLRLTGRRHVGG stands 0.748 ± 0.2.

In the case of LLRPLSPIDVLR, the protein stability index is 0.702 ± 0.069. With LLRPYYHILVPL the figure was 0.695 ± 0.0024. In turn, LLRRFSLLPPPL had a protein stability index of 0.667 ± 0.035. LLRSCLTLFARR had a protein stability index of 0.668 ± 0.021. With LLRVPPGPIFPS, the protein stability index came out at 0.661 ± 0.064. With LLSCLDILFFFI, the protein stability index turned out to be 0.609 ± 0.016. For the sequence LLSGRDAACRGG, the protein stability index worked out at 0.663 ± 0.027.

The sequence LLSLLQLPASAS registered a protein stability index of 0.605 ± 0.03. LLSLSCLPLHFR returned a protein stability index of 0.574 ± 0.088. With LLSPAPPLPPAP the figure was 0.666 ± 0.057; with LLVVSIGSCFFG, 0.572 ± 0.065.

In turn, LMGGMIRDMVWG returned a protein stability index of 0.643 ± 0.13. Under LMRGLYAIPGKF stands 0.776 ± 0.019; under LMVGFRSFNVKC, 0.618 ± 0.051. In turn, LNLRTFATFFRY came in with a protein stability index of 0.635 ± 0.077. With LNLTAPPPPHLV the figure was 0.6721 ± 0.0066; with LNLWVVYRLLGV, 0.599 ± 0.038. On to LNPPFICFAWLY, for which the protein stability index turned out to be 0.598 ± 0.076. In turn, LPAAPPPPPLPP returned a protein stability index of 0.742 ± 0.042. Consider LPASPSIAPPPT, for which the protein stability index amounted to 0.636 ± 0.06. With LPATLPPPPAPP the figure was 0.705 ± 0.036; with LPAWSYPSGWLL, 0.718 ± 0.044. With LPCCYVWFFLSL, the protein stability index worked out at 0.499 ± 0.023. LPCRRPTPPFPQ showed a protein stability index of 0.752 ± 0.024. Under LPCSTLPWAPLT stands 0.565 ± 0.023; under LPFLVSPPLFRT, 0.664 ± 0.063. LPFPLGDSRGSC: the protein stability index amounted to 0.697 ± 0.011. Under LPFPPPIIATPP stands 0.665 ± 0.13. With LPFPSPSPPFPF the figure was 0.63 ± 0.094; with LPGAEASRCTST, 0.657 ± 0.041. In the case of LPGKVGNAPFDQ, the protein stability index is 0.6913 ± 0.0062. Sequence LPHPPPLPTPPP returned a protein stability index of 0.739 ± 0.13. Under LPHVALFLLPAL stands 0.638 ± 0.0064. Under LPLLALLDVPLP stands 0.683 ± 0.018.

Turning to LPLPHPRLPPRP, the protein stability index came to 0.684 ± 0.049. On to LPLPTSPHPRPA, for which the protein stability index amounted to 0.61 ± 0.046. The sequence LPLRAHPTISFP had a protein stability index of 0.751 ± 0.05. With LPNTWLTSLIHQ the figure was 0.701 ± 0.33; with LPPAPPLPPPPT, 0.683 ± 0.044.

The sequence LPPARRHPSVYR had a protein stability index of 0.669 ± 0.064. Under LPPHPPPCPPLL stands 0.733 ± 0.088; under LPPLAPASHHLC, 0.493 ± 0.016; under LPPLAYALLPPL, 0.571 ± 0.028.

Take LPPLPLPPAPSA: the protein stability index amounted to 0.621 ± 0.042. Under LPPLPPLPPPPH stands 0.686 ± 0.076. Sequence LPPLPPPPLLFP returned a protein stability index of 0.674 ± 0.002. Under LPPPAPSPAPPH stands 0.593 ± 0.12; under LPPPGSSPRATS, 0.718 ± 0.06. Under LPPPLPPLLPLP stands 0.675 ± 0.014; under LPPPLPVRSPLF, 0.68 ± 0.012; under LPPPPIAPPLTP, 0.689 ± 0.063.

For LPPPPRPPLPSP, the protein stability index is 0.737 ± 0.068. With LPPPSPSPLFPP the figure was 0.669 ± 0.052; with LPPPYSHTPPPR, 0.581 ± 0.031. The sequence LPPQRPSQYLLH had a protein stability index of 0.786 ± 0.11. Turning to LPPRPRPLPPSP, the protein stability index worked out at 0.589 ± 0.0077. With LPPRSRHPSPYA, the protein stability index was determined as 0.654 ± 0.016. In turn, LPPSPHPPLPHL returned a protein stability index of 0.886 ± 0.011. In turn, LPPSPLALVSSS showed a protein stability index of 0.637 ± 0.021.

LPPTPPLPRSLP returned a protein stability index of 0.716 ± 0.066. With LPPTSPPPSSPP the figure was 0.7007 ± 0.0041; with LPRAAISRKFAT, 0.63 ± 0.037; with LPRLPVSPLPLP, 0.681 ± 0.057. LPRPLTIKQVAG: the protein stability index was 0.56 ± 0.021. With LPRPPPTSSTPL the figure was 0.784 ± 0.16. Under LPRRDPGPSKEP stands 0.66644 ± 0.00038; under LPSGVPPPPPLP, 0.695 ± 0.063.
